Square brackets hold non-standard residues; d marks the D form. Ends that are not written are not given here. Aib = CC(C)(N)C(=O)O
Assays:
[1] = target: glucagon-like peptide-1 receptor (UniProt P43220)
GLP-1R-Rluc8 = GLP-1R-Rluc8 (UniProt P43220)
glucagon receptor = glucagon receptor (UniProt P47871)
[2] = target: glucose-dependent insulinotropic polypeptide receptor (UniProt P48546)
GLP-1R [3] = target: T1, GLP-1R (Homo sapiens, UniProt P43220); details: vs GLP-1; stated as an observation, no reference given; cited from earlier work
GLP-1R [4] = target: T1, GLP-1R; test: β-arrestin-2 recruitment to GLP-1R measured by BRET; format: cell-based; details: for Emax: HEK-293T, read-out: β-arrestin-2 Max response (% GLP-1)
[5] = overweight and obese individuals, 24-week Phase 2 clinical trial; cited from earlier work

T1 sequence (P43220 24-463, species assumed): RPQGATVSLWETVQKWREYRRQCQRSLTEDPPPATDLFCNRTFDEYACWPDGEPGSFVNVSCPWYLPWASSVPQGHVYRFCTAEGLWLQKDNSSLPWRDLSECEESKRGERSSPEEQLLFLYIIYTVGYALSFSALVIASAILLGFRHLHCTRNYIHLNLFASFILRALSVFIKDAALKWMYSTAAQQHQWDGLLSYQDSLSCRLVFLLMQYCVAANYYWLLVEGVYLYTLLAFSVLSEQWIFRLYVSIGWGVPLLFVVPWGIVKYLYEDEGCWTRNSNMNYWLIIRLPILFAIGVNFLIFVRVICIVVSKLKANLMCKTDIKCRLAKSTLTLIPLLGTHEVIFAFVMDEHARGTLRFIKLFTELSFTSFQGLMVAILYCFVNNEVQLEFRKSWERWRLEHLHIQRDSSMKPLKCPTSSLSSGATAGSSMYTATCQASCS
Chain of glucagon-like peptide-1 receptor (P43220 24-463): as the sequence (P43220 24-463, species assumed) above
Chain of GLP-1R-Rluc8 (P43220 24-463): as the sequence (P43220 24-463, species assumed) above
Chain of glucose-dependent insulinotropic polypeptide receptor (P48546 22-466): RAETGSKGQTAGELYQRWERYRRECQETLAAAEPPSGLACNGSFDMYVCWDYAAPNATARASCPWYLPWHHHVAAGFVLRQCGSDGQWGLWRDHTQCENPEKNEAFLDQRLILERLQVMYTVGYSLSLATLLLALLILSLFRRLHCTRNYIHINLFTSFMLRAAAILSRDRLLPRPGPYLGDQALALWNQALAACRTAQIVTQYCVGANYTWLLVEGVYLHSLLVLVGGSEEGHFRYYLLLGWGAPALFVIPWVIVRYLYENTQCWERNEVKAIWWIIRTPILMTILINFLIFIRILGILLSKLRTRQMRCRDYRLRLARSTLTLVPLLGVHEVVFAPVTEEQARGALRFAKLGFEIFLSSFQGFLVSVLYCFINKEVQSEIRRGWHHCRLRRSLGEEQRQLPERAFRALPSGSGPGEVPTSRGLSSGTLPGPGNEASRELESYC

Compound	EC50, cAMP-dependent CRE6x-luciferase reporter gene assay, HEK293 cells [1] [pM]	pEC50 of β-arrestin-2 recruitment to GLP-1R, BRET, HEK293T cells (GLP-1R-Rluc8)	Emax (GLP-1R [4]) [%]	other results
GEP44 (peptide)	0.64	7.67		
Retatrutide (peptide)	11	7.62		EC50, cAMP-dependent CRE6x-luciferase reporter gene assay, HEK293 cells (glucagon receptor): 8.2 pM; EC50, cAMP-dependent CRE6x-luciferase reporter gene assay, HEK293 cells [2]: 2.2 pM
GLP-1(9–36 amide)				loss in receptor potency of the DPP4-truncated form (GLP-1R [3]): > 1,000 fold
CC[C@H](C)[C@H](NC(=O)[C@H](Cc1ccccc1)NC(=O)[C@H](C)NC(=O)C(C)(C)NC(=O)[C@H](CCC(N)=O)NC(=O)[C@H](C)NC(=O)[C@H](CCCCNC(=O)COCCOCCNC(=O)CC[C@H](NC(=O)CCCCCCCCCCCCCCCCCCC(=O)O)C(=O)O)NC(=O)[C@H](CCCCN)NC(=O)[C@H](CC(=O)O)NC(=O)[C@H](CC(C)C)NC(=O)[C@](C)(CC(C)C)NC(=O)[C@@H](NC(=O)[C@H](CO)NC(=O)[C@H](Cc1ccc(O)cc1)NC(=O)[C@H](CC(=O)O)NC(=O)[C@H](CO)NC(=O)[C@@H](NC(=O)[C@H](Cc1ccccc1)NC(=O)[C@@H](NC(=O)CNC(=O)[C@H](CCC(N)=O)NC(=O)C(C)(C)NC(=O)[C@@H](N)Cc1ccc(O)cc1)[C@@H](C)O)[C@@H](C)O)[C@@H](C)CC)C(=O)N[C@@H](CCC(=O)O)C(=O)N[C@@H](Cc1ccc(O)cc1)C(=O)N[C@@H](CC(C)C)C(=O)N[C@@H](CC(C)C)C(=O)N[C@@H](CCC(=O)O)C(=O)NCC(=O)NCC(=O)N1CCC[C@H]1C(=O)N[C@@H](CO)C(=O)N[C@@H](CO)C(=O)NCC(=O)N[C@@H](C)C(=O)N1CCC[C@H]1C(=O)N1CCC[C@H]1C(=O)N1CCC[C@H]1C(=O)N[C@@H](CO)C(N)=O [Retatrutide]			58 ± 5	maximal weight loss [5]: 24%
H[Aib]QGTFTSDYSKYLDERAAQDFVQWLLDGGPSLRHYLNLVTRQRY-NH2 (C-terminus assumed) [TC0]			90 ± 5	EC50 (GLP-1R [4]): 21400 pM

— article PMC12560177 (Journal of the American Chemical Society, 2025)
